Literature values as cited in patent US4347323A, “Glycerol kinase from Streptomyces canus” (Toyo Jozo Kabushiki Kaisha, priority 1979, dated 1982).

Settings: known glycerol kinases

B1: E.Co-GK: known glycerol kinase of Escherichia coli (protein, UniProt P0A6F3 2-502, looked up)
Glycerol kinase: TEKKYIVALDQGTTSSRAVVMDHDANIISVSQREFEQIYPKPGWVEHDPMEIWATQSSTLVEVLAKADISSDQIAAIGITNQRETTIVWEKETGKPIYNAIVWQCRRTAEICEHLKRDGLEDYIRSNTGLVIDPYFSGTKVKWILDHVEGSRERARRGELLFGTVDTWLIWKMTQGRVHVTDYTNASRTMLFNIHTLDWDDKMLEVLDIPREMLPEVRRSSEVYGQTNIGGKGGTRIPISGIAGDQQAALFGQLCVKEGMAKNTYGTGCFMLMNTGEKAVKSENGLLTTIACGPTGEVNYALEGAVFMAGASIQWLRDEMKLINDAYDSEYFATKVQNTNGVYVVPAFTGLGAPYWDPYARGAIFGLTRGVNANHIIRATLESIAYQTRDVLEAMQADSGIRLHALRVDGGAVANNFLMQFQSDILGTRVERPEVREVTALGAAYLAGLAVGFWQNLDELQEKAVIEREFRPGIETTERNYRYAGWKKAVKRAMAWEEHDE
pH stability: 6.5-7 pH
